How the values were obtained:
[1] = molecular target: tumor necrosis factor alpha (TNF-α), R&D Systems 210-TA-005 (UniProt P01375); assay: t-PLA 10X probes, human plasma; TNF-α 1.00E-09 M
[2] = molecular target: tumor necrosis factor alpha (TNF-α), R&D Systems 210-TA-005 (UniProt P01375); assay: t-PLA 10X probes, human plasma; TNF-α 1.00E-12 M
[3] = molecular target: tumor necrosis factor alpha (TNF-α), R&D Systems 210-TA-005 (UniProt P01375); assay: t-PLA 10X probes, human plasma; TNF-α 1.00E-11 M
[4] = molecular target: tumor necrosis factor alpha (TNF-α), R&D Systems 210-TA-005 (UniProt P01375); assay: c-PLA 10X probes, human plasma; TNF-α 1.00E-08 M
[5] = molecular target: tumor necrosis factor alpha (TNF-α), R&D Systems 210-TA-005 (UniProt P01375); assay: t-PLA, buffer; TNF-α 1.00E-08 M
[6] = molecular target: tumor necrosis factor alpha (TNF-α), R&D Systems 210-TA-005 (UniProt P01375); assay: c-PLA 10X probes, human plasma; TNF-α 1.00E-10 M
[7] = molecular target: tumor necrosis factor alpha (TNF-α), R&D Systems 210-TA-005 (UniProt P01375); assay: c-PLA 10X probes, human plasma; TNF-α 5.00E-07 M
[8] = molecular target: tumor necrosis factor alpha (TNF-α), R&D Systems 210-TA-005 (UniProt P01375); assay: t-PLA 1X probes, human plasma; TNF-α 1.00E-13 M
[9] = molecular target: tumor necrosis factor alpha (TNF-α), R&D Systems 210-TA-005 (UniProt P01375); assay: t-PLA, buffer; TNF-α 1.00E-12 M
[10] = molecular target: tumor necrosis factor alpha (TNF-α), R&D Systems 210-TA-005 (UniProt P01375); assay: t-PLA 1X probes, human plasma; TNF-α 1.00E-12 M
[11] = molecular target: tumor necrosis factor alpha (TNF-α), R&D Systems 210-TA-005 (UniProt P01375); assay: c-PLA 10X probes, human plasma; TNF-α 1.00E-12 M
[12] = molecular target: tumor necrosis factor alpha (TNF-α), R&D Systems 210-TA-005 (UniProt P01375); assay: c-PLA 10X probes, human plasma; TNF-α 1.00E-13 M
[13] = molecular target: tumor necrosis factor alpha (TNF-α), R&D Systems 210-TA-005 (UniProt P01375); assay: c-PLA 10X probes, buffer; TNF-α 1.00E-09 M
[14] = molecular target: tumor necrosis factor alpha (TNF-α), R&D Systems 210-TA-005 (UniProt P01375); assay: c-PLA 10X probes, buffer; TNF-α 1.00E-08 M
[15] = molecular target: tumor necrosis factor alpha (TNF-α), R&D Systems 210-TA-005 (UniProt P01375); assay: t-PLA 10X probes, buffer; TNF-α 1.00E-11 M
[16] = molecular target: tumor necrosis factor alpha (TNF-α), R&D Systems 210-TA-005 (UniProt P01375); assay: c-PLA, buffer; TNF-α 1.00E-10 M
[17] = molecular target: tumor necrosis factor alpha (TNF-α), R&D Systems 210-TA-005 (UniProt P01375); assay: t-PLA, buffer; TNF-α 1.00E-10 M
[18] = molecular target: tumor necrosis factor alpha (TNF-α), R&D Systems 210-TA-005 (UniProt P01375); assay: t-PLA 1X probes, human plasma; TNF-α 1.00E-11 M
[19] = molecular target: tumor necrosis factor alpha (TNF-α), R&D Systems 210-TA-005 (UniProt P01375); assay: t-PLA 1X probes, human plasma; TNF-α 1.00E-08 M
[20] = molecular target: vascular endothelial growth factor (VEGF), R&D Systems 293-VE-010 (human) (UniProt P15692); assay: c-PLA, human plasma; VEGF 1.00E-13 M
[21] = molecular target: vascular endothelial growth factor (VEGF), R&D Systems 293-VE-010 (human) (UniProt P15692); assay: c-PLA, buffer; VEGF 1.00E-09 M
[22] = molecular target: vascular endothelial growth factor (VEGF), R&D Systems 293-VE-010 (human) (UniProt P15692); assay: c-PLA, chicken plasma; VEGF 1.00E-09 M
[23] = molecular target: vascular endothelial growth factor (VEGF), R&D Systems 293-VE-010 (human) (UniProt P15692); assay: t-PLA, chicken plasma; VEGF 1.00E-12 M
[24] = molecular target: vascular endothelial growth factor (VEGF), R&D Systems 293-VE-010 (human) (UniProt P15692); assay: t-PLA, human plasma; VEGF 1.00E-14 M
[25] = molecular target: vascular endothelial growth factor (VEGF), R&D Systems 293-VE-010 (human) (UniProt P15692); assay: c-PLA with preamplification; VEGF 1.00E-14 M
[26] = molecular target: vascular endothelial growth factor (VEGF), R&D Systems 293-VE-010 (human) (UniProt P15692); assay: c-PLA with preamplification; VEGF 1.00E-10 M
[27] = molecular target: vascular endothelial growth factor (VEGF), R&D Systems 293-VE-010 (human) (UniProt P15692); assay: c-PLA with preamplification; VEGF 1.00E-08 M
[28] = molecular target: vascular endothelial growth factor (VEGF), R&D Systems 293-VE-010 (human) (UniProt P15692); assay: c-PLA, human plasma; VEGF 1.00E-10 M
[29] = molecular target: vascular endothelial growth factor (VEGF), R&D Systems 293-VE-010 (human) (UniProt P15692); assay: c-PLA, human plasma; VEGF 1.00E-12 M

Sequence of UniProt P01375 (P01375 77-233 limits assumed): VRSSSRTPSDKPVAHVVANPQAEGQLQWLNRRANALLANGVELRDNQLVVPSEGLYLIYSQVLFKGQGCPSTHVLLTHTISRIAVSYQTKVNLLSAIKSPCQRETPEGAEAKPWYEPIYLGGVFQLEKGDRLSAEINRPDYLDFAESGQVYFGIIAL
Sequence of UniProt P15692 (P15692 other isoform, or with tags, fused parts or gaps limits assumed): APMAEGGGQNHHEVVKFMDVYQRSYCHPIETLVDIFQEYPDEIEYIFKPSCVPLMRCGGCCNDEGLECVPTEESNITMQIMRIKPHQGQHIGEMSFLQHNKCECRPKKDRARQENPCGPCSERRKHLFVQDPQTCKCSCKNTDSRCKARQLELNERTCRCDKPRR

Substance: affinity-purified polyclonal anti-TNF-α antibody (R&D Systems AF-210-NA)
- Counts [1]: 8.87e+07
- SBR [1]: 7.8
- SBR [2]: 2.4
- Counts [3]: 4.13e+06
- Counts [4]: 158000
- SBR [4]: 73
- Counts [5]: 5.4e+07
- SBR [5]: 317
- Counts [6]: 7420
- Counts [7]: 495000
- SBR [7]: 230
- Counts [8]: 203000
- Counts [9]: 1.65e+06
- SBR [9]: 9.7
- Counts [10]: 154000
- Counts [11]: 2260
- Counts [12]: 2030
- Counts [13]: 80000
- SBR [13]: 437
- Counts [14]: 359000
- SBR [14]: 1960
- Counts [15]: 7.03e+06
- SBR [15]: 1.2
- Counts [16]: 260
- SBR [17]: 15.9
- Counts [18]: 745000
- SBR [18]: 3.1
- Counts [19]: 1.79e+07
- SBR [19]: 75

Substance: affinity-purified polyclonal anti-VEGF antibody (R&D Systems AF-293-NA)
- Counts [20]: 310
- SBR [20]: 1.2
- Counts [21]: 778000
- SBR [21]: 26200
- Counts [22]: 73600
- SBR [22]: 7980
- Counts [23]: 787000
- SBR [23]: 12
- Counts [24]: 1.63e+06
- Counts [25]: 90200
- SBR [25]: 1.5
- Counts [26]: 6.02e+07
- SBR [26]: 1010
- Counts [27]: 8.14e+07
- SBR [27]: 1370
- Counts [28]: 13800
- SBR [28]: 53
- Counts [29]: 408
- SBR [29]: 1.6
